Data taken from US20110250613A1, “Arrayed Multiple Ubiquitin Binding Domains as Linkage-specific Polyubiquitin Affinity Reagents” (THE JOHNS HOPKINS UNIVERSITY, priority 2009, published 2011).
Substitutions are numbered along the chain they refer to. Names and notes keep the numbering of the source. Values belong to the molecule of their own block, whether it stands above or below them.

How the values were obtained:
[1] = target: T1, K63-Ub2 (Homo sapiens, UniProt P0CG47, K63R); experiment: Fluorescence anisotropy binding of fluorescent tUIM peptides to K63-Ub2; conditions: for Kd: fluorescence anisotropy, single-site fit, 25° C., pH 7.4
T1 construct: Ub and K48- and K63-linked diUb and tetraUb were made as described; made in house
Text: (§1) Fluorescent Labeling. Rap80 tUIM peptides were fluorescently-labeled on the sulfhydryl group of C121 (see FIG. 1). For longer Rap80 constructs, all cysteines except C121 were mutated to serine for site-specific labeling. Ataxin-3 and Vps27 UIM peptides were labeled on a single cysteine introduced at the C-terminus. Fluorescein-5-maleimide (Pierce) was coupled to cysteines following the manufacturer's instructions. After desalting through Sephadex G-25 resin, fluorescein-labeled tUIM peptides were separated from unlabeled peptides by anion-exchange chromatography (MonoQ column, GE Biosciences) by elution with a NaCl gradient in 50 mM Tris buffer, pH 7.9. The labeled peptides were essentially 100% pure by SDS-PAGE and Coomassie blue staining, and MALDI-TOF mass spectrometry confirmed the addition of a single fluorescein moiety. Fluorescence Anisotropy Binding Assays. Fluorescence anisotropy measurements were made using a Fluoromax 4 fluorometer in L format, thermostatted at 25° C. Excitation and emission monochromators were set at 492 nm and 520 nm, respectively. Slit widths were 3 nm for diUb-binding assays ([…]) or 6 nm for tetraUb-binding assays ([…]). Anisotropies were calculated by the instrument software, and the overall intensity of the fluorescence signal was monitored at each point with the polarizers oriented at the magic angle. All measurements were made in fluorescence buffer (25 mM Na phosphate [pH 7.4], 150 mM NaCl, 5 mM β-mercaptoethanol, 1 mM EDTA, and either 0.005% surfactant P20 (BIACORE) or 0.05% Brij35). Concentrations of the fluorescent proteins were calculated using the fluorescein extinction coefficient at 494 nm, 68000 M^-1 cm^-1. (poly)Ub concentrations were assessed by absorbance at 280 nm using the extinction coefficient 0.16 (mg/ml)^-1 cm^-1 ([…] and Raasi, 2005). Fluorescence anisotropy data were fit with a single-site binding model as described (Wilkinson, 2004). The equilibrium constants for wild-type Vps27 peptide binding to K63 and K48 Ub4 were determined by competition with the fluorescent Vps27 7aa linker peptide as described (Wilkinson, 2004).

[2] = target: K48-Ub4; experiment: Fluorescence anisotropy binding of fluorescent tUIM peptides to K48-Ub4
Text: as §1

[3] = target: T2, K48-Ub2 (Homo sapiens, UniProt P0CG47, K48R); experiment: Fluorescence anisotropy binding of fluorescent tUIM peptides to K48-Ub2; conditions: single-site fit, 25° C., pH 7.4
T2 construct: Ub and K48- and K63-linked diUb and tetraUb were made as described; made in house
Experimental: Fluorescence Anisotropy Binding Assays. Fluorescence anisotropy measurements were made using a Fluoromax 4 fluorometer in L format, thermostatted at 25° C. Excitation and emission monochromators were set at 492 nm and 520 nm, respectively. Slit widths were 3 nm for diUb-binding assays (1 mM fluorophore) or 6 nm for tetraUb-binding assays (0.1 mM fluorophore). Anisotropies were calculated by the instrument software, and the overall intensity of the fluorescence signal was monitored at each point with the polarizers oriented at the magic angle. All measurements were made in fluorescence buffer (25 mM Na phosphate [pH 7.4], 150 mM NaCl, 5 mM β-mercaptoethanol, 1 mM EDTA, and either 0.005% surfactant P20 (BIACORE) or 0.05% Brij35). Concentrations of the fluorescent proteins were calculated using the fluorescein extinction coefficient at 494 nm, 68000 M^-1 cm^-1. (poly)Ub concentrations were assessed by absorbance at 280 nm using the extinction coefficient 0.16 (mg/ml)^-1 cm^-1 ([…] and Raasi, 2005). Fluorescence anisotropy data were fit with a single-site binding model as described (Wilkinson, 2004).

[4] = target: T3, K63-Ub4 (Homo sapiens, UniProt P0CG47, K63R); experiment: Fluorescence anisotropy binding of fluorescent tUIM peptides to K63-Ub4
T3 construct: Ub and K48- and K63-linked diUb and tetraUb were made as described; made in house
Text: as §1

[5] = system: K63-Ub4; experiment: as above
Text: as §1

[6] = system: K63-Ub2; experiment: Fluorescence anisotropy binding of fluorescent tUIM peptides to K63-Ub2
Text: as §1

[7] = CD measurements of helical content of tUIM peptides; assay type: physicochemical; conditions: whole-spectrum interpretation of CD; peptide without vector-derived residues
Experimental: Measurements of 3 samples were collected and are shown in FIG. 2D: (1) 153 μM Rap80 tUIM alone, (2) 153 μM K63-Ub2 alone, and (3) a mixture of 153 μM Rap80 tUIM with 153 μM K63-Ub2. The contribution of Rap80 tUIM to spectrum (3) was sought, so that the helical content of the bound tUIM could be estimated. […] Therefore, the difference between spectrum (3) and spectrum (2) will give the contribution from Rap80 tUIM to the total CD spectrum of the Rap80-K63-Ub2 mixture. (A) The spectrum of unbound Rap80 [spectrum (1)] is shown here as triangles. The contribution of Rap80 to spectrum (3) was calculated as (3)−(2), and is shown here as squares. Because the mixture of Rap80 with K63-Ub2 is not at saturating concentrations, bound and unbound Rap80 are both present in the solution. The observed helical fraction (Hmix) for this complex mixture can be described by:
Where Fbound and Funbound are the fractions of the bound and unbound forms of Rap80 present in the mixture, respectively, and Hbound and Hunbound are the helical contents of the bound and unbound forms of Rap80, respectively. […] (B) Shown here is a summary of the secondary structure predictions from two methods and the corresponding Hbound values calculated as described above. […]
CD Measurements. […] Peptide concentrations were independently determined before each CD reading from absorbance measurements (fluorescein) of samples in the CD cuvette.

[8] = determined by competition with the fluorescent Vps27 7aa linker peptide
[9] = fluorescence anisotropy, single-site fit, 25° C., pH 7.4
[10] = fluorescence anisotropy Kd values

- Kd [1]: 67 µM
- Kd [2, 8]: 31 µM
- Kd [3]: 211 µM
- Kd [4, 8]: 29 µM
- binding of K63-Ub4 versus K48-Ub4 ([5]; fluorescence anisotropy): indistinguishably
B1: Vps27 (WT): yeast Vps27 tandem UIM peptide with unstructured 25-residue linker (protein)
peptide: PSSHHHHHHSSGLVPRGSHMDRDYSTPEDEEELIRKAIELSLKESRNSASSEPIVPVVESKNEVKRQEIEEEEDPDLKAAIQESLREAEEAKLRSERQKAC

- Kd [1]: 87 µM
- Kd [3]: 160 µM
B2: Rap80 6aa linker: Rap80 tUIM peptide with 6-residue linker REVAAE (protein)
peptide: PSSHHHHHHSSGLVPRGSHMTEEEQFALALKMSEQEAREVAAEEEEEELLRKAIAESLNSCRPS

- binds K63-Ub2 more tightly than Rap80 with the wild-type linker ([1]; Table 2 Kd values): 6 fold
- Kd [1]: 3.6 µM
- Kd [3]: 160 µM
B3: Rap80 7A linker: Rap80 UIMs linked by 7 alanine residues (protein)
peptide: PSSHHHHHHSSGLVPRGSHMTEEEQFALALKMSEQEAAAAAAAAEEEEELLRKAIAESLNSCRPS

- Kd [1]: 16 µM
- Kd [3]: 170 ± 5 µM
B4: Rap80 S101E: Rap80 tUIM peptide, linker REVNEQE (protein)
peptide: B3 peptide with A38R, A39E, A40V, A41N, A42E, A43Q, A44E

- Ki ([1]; unlabeled peptide titrated against fluorescent Rap80 tUIM peptide at saturating K63-Ub2, read-out: Ki for the binding inhibition): 24 µM
B5: unlabeled Rap80 tUIM peptide: unlabeled version of the fluorescent Rap80 tUIM peptide (protein)
peptide: B3 peptide with A38R, A39E, A40V, A41N, A42S, A43Q, A44E

- Kd [1]: 17 µM
- Kd [3]: 230 µM
B6: Rap80 ARLEEKV: Rap80 tUIM peptide, linker ARLEEKV (protein)
peptide: B3 peptide with A39R, A40L, A41E, A42E, A43K, A44V

- Kd [1]: 10 µM
- Kd [3]: 129 ± 5 µM
B7: Rap80 DLKAAIQ: Rap80 tUIM peptide, linker DLKAAIQ (protein)
peptide: B3 peptide with A38D, A39L, A40K, A43I, A44Q

- Kd [1]: 11 µM
- Kd [3]: 152 ± 6 µM
B8: Rap80 S101A: Rap80 tUIM peptide, linker REVNAQE (protein)
peptide: B3 peptide with A38R, A39E, A40V, A41N, A43Q, A44E

- Kd [1]: 150 µM
- Kd [3]: 170 µM
B9: Rap80 2 x linker: Rap80 tUIM peptide with 14-residue linker REVNSQEREVNSQE (protein)
peptide: PSSHHHHHHSSGLVPRGSHMTEEEQFALALKMSEQEAREVNSQEREVNSQEEEEEELLRKAIAESLNSCRPS

- preference for K63-Ub4 over K48-Ub4 ([5]; solution fluorescence anisotropy): 7 fold
B10: Rap80 (residues 1-233): N-terminal 233 residues of Rap80, fluorescently labeled on the same UIM cysteine (protein)
chain: MPRRKKKVKEVSESRNLEKKDVETTSSVSVKRKRRLEDAFIVISDSDGEEPKEENGLQKTKTKQSNRAKSLAKRKIAQMTEEEQFALALKMSEQEAREVNSQEEEEEELLRKAIAESLNSCRPSDASATRSRPLATGPSSQSHQEKTTDSGLTEGIWQLVPPSLFKGSHISQGNEAEEREEPWDHTEKTEEEPVSGSSGSWDQSSQPVFENVNVKSFDRSTGHSAEHTQSGKP

- Kd [1]: 2.2 µM
- Kd [2, 9]: 6.5 µM
- Kd [3]: 98 µM
- Kd [4, 9]: 0.62 µM
B11: Vps27 7aa linker: Vps27 UIMs connected with 7-residue linker RAEEKVK (protein)
peptide: PSSHHHHHHSSGLVPRGSHMEEEEDPDLKAAIQESLREARAEEKVKEDEEELIRKAIELSLKESRNCA

- Kd [1]: 60 µM
- Kd [2, 9]: 7.8 µM
- Kd [3]: 160 µM
- Kd [4, 9]: 11 µM
B12: ataxin-3 Rap80 linker: ataxin-3 UIMs spliced together with the Rap80 linker REVNSQE (protein)
peptide: PSSHHHHHHSSGLVPRGSHMDEDEEDLQRALALSRQEIREVNSQEEDEEADLRRAIQLSMQGSSRNC

- Kd [1]: 17 µM
- Kd [2, 9]: 9.3 µM
- Kd [3]: 140 µM
B13: ataxin-3 7A linker: ataxin-3 UIMs joined by a 7-alanine linker (protein)
peptide: B12 peptide with R39A, E40A, V41A, N42A, S43A, Q44A, E45A

- Kd [1]: 21.6 ± 0.8 µM
- preference for K63-Ub2 over monoUb [6, 10]: 24 fold
- preference for K63-Ub2 over K48-Ub2 ([6]; from Kd values): 7 fold
- bound K48-Ub4 tighter than K48-Ub2 [2, 10]: more than 11 times
B14: Rap80 (WT): His6-tagged human Rap80 tandem UIM peptide, linker REVNSQE, fluorescein-labeled on C121; sequence in Table 1 (protein)
peptide: PSSHHHHHHSSGLVPRGSHMTEEEQFALALKMSEQEAREVNSQEEEEEELLRKAIAESLNSC(fluorescein)RPS
- α-helical content, K63-Ub2-bound form [7]: ~100%
- α-helical content, unbound form [7]: 30%-35%
